Source: US20090155304A1 (OSEL, published 2009)

Assays:
[1] = molecular target: gp120 of CXCR4-tropic HIV-1 IIIB (on cell-free virus) (HIV-1 IIIB); assay: cell-based or functional assay
[2] = molecular target: gp120 of CCR5-tropic HIV-1 BaL (on cell-free virus) (HIV-1 BaL); assay: cell-based or functional assay

B1: Lactobacillus-derived full-length APVT-CV-N (P51G) (other)
chain: APVTLGKFSQTCYNSAIQGSVLTSTCERTNGGYNTSSIDLNSVIENVDGSLKWQGSNFIETCRNTQLAGSSELAAECKTRAQQFVSTKINLDDHIANIDGTLKYE
IC50, inhibition of CXCR4-tropic HIVIIIB (HeLa-LTR-beta-gal X4-tropic attachment assay) [1]: < 3 nM | IC50, inhibition of CCR5-tropic HIVBaL infection (MAGI-R5-LTR-beta-gal attachment inhibition assay) [2]: 0.3 nM
